According to IntAct's records for PubMed 23263282:

B1: TELO2-interacting protein 1 homolog (Homo sapiens), O43156 (parent)
chain: MAVFDTPEEAFGVLRPVCVQLTKTQTVENVEHLQTRLQAVSDSALQELQQYILFPLRFTLKTPGPKRERLIQSVVECLTFVLSSTCVKEQELLQELFSELSACLYSPSSQKPAAVSEELKLAVIQGLSTLMHSAYGDIILTFYEPSILPRLGFAVSLLLGLAEQEKSKQIKIAALKCLQVLLLQCDCQDHPRSLDELEQKQLGDLFASFLPGISTALTRLITGDFKQGHSIVVSSLKIFYKTVSFIMADEQLKRISKVQAKPAVEHRVAELMVYREADWVKKTGDKLTILIKKIIECVSVHPHWKVRLELVELVEDLLLKCSQSLVECAGPLLKALVGLVNDESPEIQAQCNKVLRHFADQKVVVGNKALADILSESLHSLATSLPRLMNSQDDQGKFSTLSLLLGYLKLLGPKINFVLNSVAHLQRLSKALIQVLELDVADIKIVEERRWNSDDLNASPKTSATQPWNRIQRRYFRFFTDERIFMLLRQVCQLLGYYGNLYLLVDHFMELYHQSVVYRKQAAMILNELVTGAAGLEVEDLHEKHIKTNPEELREIVTSILEEYTSQENWYLVTCLETEEMGEELMMEHPGLQAITSGEHTCQVTSFLAFSKPSPTICSMNSNIWQICIQLEGIGQFAYALGKDFCLLLMSALYPVLEKAGDQTLLISQVATSTMMDVCRACGYDSLQHLINQNSDYLVNGISLNLRHLALHPHTPKVLEVMLRNSDANLLPLVADVVQDVLATLDQFYDKRAASFVSVLHALMAALAQWFPDTGNLGHLQEQSLGEEGSHLNQRPAALEKSTTTAEDIEQFLLNYLKEKDVADGNVSDFDNEEEEQSVPPKVDENDTRPDVEPPLPLQIQIAMDVMERCIHLLSDKNLQIRLKVLDVLDLCVVVLQSHKNQLLPLAHQAWPSLVHRLTRDAPLAVLRAFKVLRTLGSKCGDFLRSRFCKDVLPKLAGSLVTQAPISARAGPVYSHTLAFKLQLAVLQGLGPLCERLDLGEGDLNKVADACLIYLSVKQPVKLQEAARSVFLHLMKVDPDSTWFLLNELYCPVQFTPPHPSLHPVQLHGASGQQNPYTTNVLQLLKELQ
partner: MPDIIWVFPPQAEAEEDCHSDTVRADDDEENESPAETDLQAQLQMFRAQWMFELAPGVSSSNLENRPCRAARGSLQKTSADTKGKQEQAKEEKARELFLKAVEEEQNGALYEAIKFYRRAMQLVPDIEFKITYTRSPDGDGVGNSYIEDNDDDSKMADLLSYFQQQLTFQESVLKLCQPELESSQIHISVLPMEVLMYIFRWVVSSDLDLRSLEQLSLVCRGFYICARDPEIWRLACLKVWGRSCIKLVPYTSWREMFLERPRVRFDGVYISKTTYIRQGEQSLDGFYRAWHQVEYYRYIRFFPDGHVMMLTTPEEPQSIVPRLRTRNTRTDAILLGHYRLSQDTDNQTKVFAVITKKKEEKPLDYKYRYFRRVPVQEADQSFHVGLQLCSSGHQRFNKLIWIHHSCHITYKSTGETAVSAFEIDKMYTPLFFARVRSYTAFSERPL
B2: Telomere length regulation protein TEL2 homolog (Homo sapiens), Q9Y4R8 (parent)
chain: MEPAPSEVRLAVREAIHALSSSEDGGHIFCTLESLKRYLGEMEPPALPREKEEFASAHFSPVLRCLASRLSPAWLELLPHGRLEELWASFFLEGPADQAFLVLMETIEGAAGPSFRLMKMARLLARFLREGRLAVLMEAQCRQQTQPGFILLRETLLGKVVALPDHLGNRLQQENLAEFFPQNYFRLLGEEVVRVLQAVVDSLQGGLDSSVSFVSQVLGKACVHGRQQEILGVLVPRLAALTQGSYLHQRVCWRLVEQVPDRAMEAVLTGLVEAALGPEVLSRLLGNLVVKNKKAQFVMTQKLLFLQSRLTTPMLQSLLGHLAMDSQRRPLLLQVLKELLETWGSSSAIRHTPLPQQRHVSKAVLICLAQLGEPELRDSRDELLASMMAGVKCRLDSSLPPVRRLGMIVAEVVSARIHPEGPPLKFQYEEDELSLELLALASPQPAGDGASEAGTSLVPATAEPPAETPAEIVDGGVPQAQLAGSDSDLDSDDEFVPYDMSGDRELKSSKAPAYVRDCVEALTTSEDIERWEAALRALEGLVYRSPTATREVSVELAKVLLHLEEKTCVVGFAGLRQRALVAVTVTDPAPVADYLTSQFYALNYSLRQRMDILDVLTLAAQELSRPGCLGRTPQPGSPSPNTPCLPEAAVSQPGSAVASDWRVVVEERIRSKTQRLSKGGPRQGPAGSPSRFNSVAGHFFFPLLQRFDRPLVTFDLLGEDQLVLGRLAHTLGALMCLAVNTTVAVAMGKALLEFVWALRFHIDAYVRQGLLSAVSSVLLSLPAARLLEDLMDELLEARSWLADVAEKDPDEDCRTLALRALLLLQRLKNRLLPPASP
partner: B1 partner

Variants of: B1
Settings: with fbx9_human FBXO9, Q9UK97

effect of a mutation on the interaction | Variant
disrupting interaction strength | S828A

Variants of: B2
Settings: with fbx9_human FBXO9, Q9UK97

effect of a mutation on the interaction | Variant
decreasing interaction strength | S485A;S487A
